To fix the notation:
B1: Get5-UBL L120A (domain or fragment, S. cerevisiae)
chain: VHLTLKKIQAPKFSIEHDFSPSDTILQIKQHLISEEKASHISEIKLALKGKVLHDNLFLSDLKVTPANSTITVMIKPN
B2: Sgt2 N-terminal homodimerization domain (Sgt2-N), wild type (domain or fragment, S. cerevisiae)
chain: SASKEEIAALIVNYFSSIVEKKEISEDGADSLNVAMDCISEAFGFEREAVSGILGKSEFKGQHLADILNSA
B3: Sgt2-N D31A (domain or fragment, S. cerevisiae)
chain: B2 chain with D30A
B4: Sgt2-N C39V (domain or fragment, S. cerevisiae)
chain: B2 chain with C38V
B5: Sgt2-N C39S (domain or fragment, S. cerevisiae)
chain: B2 chain with C38S
B6: Sgt2-N D28A (domain or fragment, S. cerevisiae)
chain: B2 chain with D27A
B7: Sgt2-N V35A (domain or fragment, S. cerevisiae)
chain: B2 chain with V34A

Data set [1] concerns the target B2. Briefly: ITC.
The data set “solution NMR structure” concerns the molecule itself. Nature of the data set: solution NMR structure.
Data set [2] addresses T1, polyhistidine-tagged Get5-UBL, wild type (S. cerevisiae, UniProt Q12285 74-151).
T1 sequence: B1 chain with A47L
Nature of the data set: SPR. Background: Surface plasmon resonance follows binding to a sensor surface in real time, without labels.

The target of data set [3] is T2, Get5 ubiquitin-like domain (Get5-UBL), wild type (S. cerevisiae, UniProt Q12285 74-151).
T2 sequence: B1 chain with A47L
Nature of the data set: NMR exchange spectroscopy.

The target in data set [4] is T3, polyhistidine-tagged Get5-UBL-C (S. cerevisiae).
T3 sequence (Q12285 whole entry, looked up): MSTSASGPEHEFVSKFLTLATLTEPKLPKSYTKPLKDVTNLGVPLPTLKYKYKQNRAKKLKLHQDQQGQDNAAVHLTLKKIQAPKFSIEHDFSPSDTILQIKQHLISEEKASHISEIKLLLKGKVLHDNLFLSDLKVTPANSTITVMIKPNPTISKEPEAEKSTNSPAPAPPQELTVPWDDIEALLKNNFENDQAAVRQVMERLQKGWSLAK
Briefly: SPR.

Data set [5] deals with T2, Get5 ubiquitin-like domain (Get5-UBL), …. Briefly: NMR exchange spectroscopy. The source holds these as a separate data set.
Data set [6] shares this target. Briefly: ITC. Background: ITC needs no label: the signal is the heat of the interaction.

Positions count from the first letter of the chain named. Numbers in names are those of the source. Where “and” joins values, the source holds several entries; their conditions need not be identical. Identical values can stand only once.

For orientation: stoichiometry N means the number of molecules, sites or subunits per partner or assembly. By Kd is commonly meant the constant that tells how readily two partners part at equilibrium. Broadly, the koff is the first-order rate constant of dissociation. The kon is the rate constant with which the complex forms. Lower therefore signals slower complex formation.

As for B1, the “fold lower affinity than wild type” value in data set [1] amounted to 1000 fold.

Turning to B2, in “solution NMR structure”, the “stoichiometry N” value is 2. The equilibrium dissociation constant (Kd) came out at 3780 nM in data set [2] and 749 nM in data set [4]. Moreover, the off-rate (koff) in data set [3] was 7.5 s⁻¹ and 5.7 s⁻¹. The kon in data set [4] was 1.06e+07 M⁻¹ s⁻¹; in data set [5], roughly 2e+08 M⁻¹ s⁻¹.

As for B3, the binding result in data set [2] is on record as “binds”.

Consider B4, for which the “fold lower affinity than wild type” value in data set [6] amounted to 100 fold.

For the molecule B5, the “fold lower affinity than wild type” value in data set [6] was roughly 700 fold.

In the case of B6, in data set [2], the binding result was “binds”.

As to B7, in data set [6], the “fold lower affinity than wild type” value is greater than 100 fold.

Values taken from PMC3654831 (Cell reports, 2012).
